Experimental data as given in the Human Domainome abundance scans (Beltran et al. 2025).
± gives the uncertainty stated by the source.

B1: Double-stranded RNA-binding protein Staufen homolog 1, residues 183 to 249; numbered along this chain, O95793 (parent)
chain: KSEISQVFEIALKRNLPVNFEVARESGPPHMKNFVTKVSVGEFVGEGEGKSKKISKKNAAIAVLEEL
B2: DnaJ homolog subfamily C member 5, residues 16 to 77; numbered along this chain, Q9H3Z4 (parent)
chain: LYHVLGLDKNATSDDIKKSYRKLALKYHPDKNPDNPEAADKFKEINNAHAILTDATKRNIYD

Variants of: B1
Experiment: abundance fitness (aPCA) (normalised: wild type 0, dead -1); higher = more abundant; growth selection in yeast, the domain comes from the species named
Conditions: Homo sapiens

Variant | abundance fitness
KSEISQVFEIALKRNLPVNFEVARESGPPHMKNFVTKVSVGEFVGEGEGKSKKISKKNAAIAVLWEL [E65W] | -0.388 ± 0.065
KSEISQVFEIALKRNLPVNFEVARESGPPHMKNFVTKVSVGEFVGEGEGKSKKISKKNAAIAVLYEL [E65Y] | -0.212 ± 0.082
KSEISQVFEIALKRNLPVNFEVARESGPPHMKNFVTKVSVGEFVGEGEGKSKKISKKNAAIAVLECL [E66C] | -0.037 ± 0.13
KSEISQVFEIALKRNLPVNFEVARESGPPHMKNFVTKVSVGEFVGEGEGKSKKISKKNAAIAVLEFL [E66F] | 0.103 ± 0.11
KSEISQVFEIALKRNLPVNFEVARESGPPHMKNFVTKVSVGEFVGEGEGKSKKISKKNAAIAVLEGL [E66G] | -0.118 ± 0.043
KSEISQVFEIALKRNLPVNFEVARESGPPHMKNFVTKVSVGEFVGEGEGKSKKISKKNAAIAVLEHL [E66H] | -0.002 ± 0.085
KSEISQVFEIALKRNLPVNFEVARESGPPHMKNFVTKVSVGEFVGEGEGKSKKISKKNAAIAVLEIL [E66I] | 0.097 ± 0.067
KSEISQVFEIALKRNLPVNFEVARESGPPHMKNFVTKVSVGEFVGEGEGKSKKISKKNAAIAVLEKL [E66K] | 0.216 ± 0.056
KSEISQVFEIALKRNLPVNFEVARESGPPHMKNFVTKVSVGEFVGEGEGKSKKISKKNAAIAVLELL [E66L] | 0.114 ± 0.038
KSEISQVFEIALKRNLPVNFEVARESGPPHMKNFVTKVSVGEFVGEGEGKSKKISKKNAAIAVLEML [E66M] | 0.111 ± 0.067
KSEISQVFEIALKRNLPVNFEVARESGPPHMKNFVTKVSVGEFVGEGEGKSKKISKKNAAIAVLENL [E66N] | -0.012 ± 0.082
KSEISQVFEIALKRNLPVNFEVARESGPPHMKNFVTKVSVGEFVGEGEGKSKKISKKNAAIAVLEPL [E66P] | -0.235 ± 0.051
KSEISQVFEIALKRNLPVNFEVARESGPPHMKNFVTKVSVGEFVGEGEGKSKKISKKNAAIAVLEQL [E66Q] | 0.138 ± 0.06
KSEISQVFEIALKRNLPVNFEVARESGPPHMKNFVTKVSVGEFVGEGEGKSKKISKKNAAIAVLERL [E66R] | 0.123 ± 0.043
KSEISQVFEIALKRNLPVNFEVARESGPPHMKNFVTKVSVGEFVGEGEGKSKKISKKNAAIAVLESL [E66S] | -0.005 ± 0.05
KSEISQVFEIALKRNLPVNFEVARESGPPHMKNFVTKVSVGEFVGEGEGKSKKISKKNAAIAVLETL [E66T] | -0.042 ± 0.049
KSEISQVFEIALKRNLPVNFEVARESGPPHMKNFVTKVSVGEFVGEGEGKSKKISKKNAAIAVLEVL [E66V] | 0.077 ± 0.04
KSEISQVFEIALKRNLPVNFEVARESGPPHMKNFVTKVSVGEFVGEGEGKSKKISKKNAAIAVLEWL [E66W] | -0.079 ± 0.077
KSEISQVFEIALKRNLPVNFEVARESGPPHMKNFVTKVSVGEFVGEGEGKSKKISKKNAAIAVLEYL [E66Y] | 0.063 ± 0.069

Variant | abundance fitness
KSEISQVFEIALKRNLPVNFEVARESGPPHMKNFVTKVSVGEFVGEGEGKSKKISKKNAAIAVLEEA [L67A] | -0.509 ± 0.083
KSEISQVFEIALKRNLPVNFEVARESGPPHMKNFVTKVSVGEFVGEGEGKSKKISKKNAAIAVLEEC [L67C] | -0.693 ± 0.13
KSEISQVFEIALKRNLPVNFEVARESGPPHMKNFVTKVSVGEFVGEGEGKSKKISKKNAAIAVLEED [L67D] | -0.706 ± 0.35
KSEISQVFEIALKRNLPVNFEVARESGPPHMKNFVTKVSVGEFVGEGEGKSKKISKKNAAIAVLEEE [L67E] | -0.743 ± 0.11
KSEISQVFEIALKRNLPVNFEVARESGPPHMKNFVTKVSVGEFVGEGEGKSKKISKKNAAIAVLEEF [L67F] | -0.355 ± 0.11
KSEISQVFEIALKRNLPVNFEVARESGPPHMKNFVTKVSVGEFVGEGEGKSKKISKKNAAIAVLEEG [L67G] | -0.438 ± 0.066
KSEISQVFEIALKRNLPVNFEVARESGPPHMKNFVTKVSVGEFVGEGEGKSKKISKKNAAIAVLEEH [L67H] | -0.299 ± 0.25
KSEISQVFEIALKRNLPVNFEVARESGPPHMKNFVTKVSVGEFVGEGEGKSKKISKKNAAIAVLEEI [L67I] | -0.114 ± 0.14
KSEISQVFEIALKRNLPVNFEVARESGPPHMKNFVTKVSVGEFVGEGEGKSKKISKKNAAIAVLEEK [L67K] | -0.53 ± 0.08
KSEISQVFEIALKRNLPVNFEVARESGPPHMKNFVTKVSVGEFVGEGEGKSKKISKKNAAIAVLEEM [L67M] | 0 ± 0.058
KSEISQVFEIALKRNLPVNFEVARESGPPHMKNFVTKVSVGEFVGEGEGKSKKISKKNAAIAVLEEN [L67N] | -0.584 ± 0.18
KSEISQVFEIALKRNLPVNFEVARESGPPHMKNFVTKVSVGEFVGEGEGKSKKISKKNAAIAVLEEP [L67P] | -0.526 ± 0.094
KSEISQVFEIALKRNLPVNFEVARESGPPHMKNFVTKVSVGEFVGEGEGKSKKISKKNAAIAVLEEQ [L67Q] | -0.423 ± 0.076
KSEISQVFEIALKRNLPVNFEVARESGPPHMKNFVTKVSVGEFVGEGEGKSKKISKKNAAIAVLEER [L67R] | -0.751 ± 0.074
KSEISQVFEIALKRNLPVNFEVARESGPPHMKNFVTKVSVGEFVGEGEGKSKKISKKNAAIAVLEES [L67S] | -0.603 ± 0.067
KSEISQVFEIALKRNLPVNFEVARESGPPHMKNFVTKVSVGEFVGEGEGKSKKISKKNAAIAVLEET [L67T] | -0.6 ± 0.077
KSEISQVFEIALKRNLPVNFEVARESGPPHMKNFVTKVSVGEFVGEGEGKSKKISKKNAAIAVLEEV [L67V] | -0.439 ± 0.076
KSEISQVFEIALKRNLPVNFEVARESGPPHMKNFVTKVSVGEFVGEGEGKSKKISKKNAAIAVLEEW [L67W] | -0.465 ± 0.093
KSEISQVFEIALKRNLPVNFEVARESGPPHMKNFVTKVSVGEFVGEGEGKSKKISKKNAAIAVLEEY [L67Y] | -0.873 ± 0.24

Variants of: B2
Experiment: as above
Conditions: Homo sapiens

Variant | abundance fitness
AYHVLGLDKNATSDDIKKSYRKLALKYHPDKNPDNPEAADKFKEINNAHAILTDATKRNIYD [L1A] | -0.124 ± 0.17
CYHVLGLDKNATSDDIKKSYRKLALKYHPDKNPDNPEAADKFKEINNAHAILTDATKRNIYD [L1C] | -0.284 ± 0.43
EYHVLGLDKNATSDDIKKSYRKLALKYHPDKNPDNPEAADKFKEINNAHAILTDATKRNIYD [L1E] | -0.14 ± 0.13
